B1: Protein RESTRICTED TEV MOVEMENT 3 (Arabidopsis thaliana (Mouse-ear cress)), D5K228 (parent)
chain: MGKQFDKKITWTIKNFASLLSDLIYSDHFVVGGCKWHLRAYPKGYNNANSLSLFLGVAVPTSLPSGWRRHTKFRLTLVNQLSDKLSQSKLNELEQWFDEKTTNWGLSSMCPLNEIHAKDSGFLLNGELKIVVEIKVLETIGKLDVTEETSTITETVDVNGFQLLPSQAKSVSRMFAKHPELASDLRPKNPNLRTGYMSLLLSLIETLSQLPQQMSKDDLLDAYDALGSMRDAGFKLDWLEKKLYEVSEKKENEEASETGLQEMEEELKDMKQKCLEMEALVEKEKAKVSTAKAPISFDDIV
partner: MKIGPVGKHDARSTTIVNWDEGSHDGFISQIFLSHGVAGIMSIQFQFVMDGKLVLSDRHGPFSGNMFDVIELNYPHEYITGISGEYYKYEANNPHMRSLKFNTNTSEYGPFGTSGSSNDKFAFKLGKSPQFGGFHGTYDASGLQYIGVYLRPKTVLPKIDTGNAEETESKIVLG

Variants of: B1
Details: with jal1_arath RTM1, Q9SE37

Q: MGKQFDKKITWTIKNFASLLSDLIYSDHFVVGGCKWHLRAYPKGYNNANSLSLFLGVAVPTSLPSGWRRHTKFRLTLVNQLSDKLSQSKLNELEQWFDEKTTNWGLSSMCPLNEIHAKDSGFLLNGELKIVVEIKVLETIGKLDVTEETSTITETVDVNGFQLLPSQAKSVSRMFAKHPELASDLRPKNPNLRTGYMSLLLSLIETLSQLPQQMSKDDLLDAYDALGSMRDAGFKLDWLEKKLYEVSEKKENEEASETGLQEMEEELKDMKQKCLEMEALVEKKKAKVSTAKAPISFDDIV [E284K] was tested. Which “effect of a mutation on the interaction” value did it give?
A: decreasing interaction

— IntAct's records for PubMed 20584941
